Literature values as cited in US10906951B2, “Modified natural killer cells and natural killer cell lines having increased cytotoxicity” (ONK THERAPEUTICS LIMITED, priority 2015, dated 2021).

Target: DR5 (Homo sapiens, UniProt O14763)
Details: in words; known from WO 2009/077857, Van der Sloot 2006, MacFarlane 2005, WO 01/00832; cited from earlier work

Molecule | affinity for DR5
D269H: TRAIL variant, Van der Sloot 2006 (protein, UniProt P50591 1-281, looked up, variant D269H) Tumor necrosis factor ligand …: MAMMEVQGGPSLGQTCVLIVIFTVLLQSLCVAVTYVYFTNELKQMQDKYSKSGIACFLKEDDSYWDPNDEESMNSPCWQVKWQLRQLVRKMILRTSEETISTVQEKQQNISPLVRERGPQRVAAHITGTRGRSNTLSSPNSKNEKALGRKINSWESSRSGHSFLSNLHLRNGELVIHEKGFYYIYSQTYFRFQEEIKENTKNDKQMVQYIYKYTSYPDPILLMKSARNSCWSKDAEYGLYSIYQGGIFELKENDRIFVSVTNEHLIDMHHEASFFGAFLVG | increased affinity for DR5

Target: DR4 (Homo sapiens, UniProt O00220)
Details: in words; known from WO 2009/066174, MacFarlane 2005; cited from earlier work

Molecule | affinity for DR4
Y189Q/R191K/Q193R/H264R/I266L/D267Q: TRAIL DR4 variant, MacFarlane 2005 (protein, UniProt P50591 1-281, looked up, variant Y189Q R191K Q193R H264R I266L D267Q) Tumor necrosis factor ligand …: MAMMEVQGGPSLGQTCVLIVIFTVLLQSLCVAVTYVYFTNELKQMQDKYSKSGIACFLKEDDSYWDPNDEESMNSPCWQVKWQLRQLVRKMILRTSEETISTVQEKQQNISPLVRERGPQRVAAHITGTRGRSNTLSSPNSKNEKALGRKINSWESSRSGHSFLSNLHLRNGELVIHEKGFYYIYSQTQFKFREEIKENTKNDKQMVQYIYKYTSYPDPILLMKSARNSCWSKDAEYGLYSIYQGGIFELKENDRIFVSVTNERLLQMDHEASFFGAFLVG | DR4 variants
R149N: TRAIL DR4 variant, WO 2009/066174 (protein, UniProt P50591 1-281, looked up, variant R149N) Tumor necrosis factor ligand …: MAMMEVQGGPSLGQTCVLIVIFTVLLQSLCVAVTYVYFTNELKQMQDKYSKSGIACFLKEDDSYWDPNDEESMNSPCWQVKWQLRQLVRKMILRTSEETISTVQEKQQNISPLVRERGPQRVAAHITGTRGRSNTLSSPNSKNEKALGNKINSWESSRSGHSFLSNLHLRNGELVIHEKGFYYIYSQTYFRFQEEIKENTKNDKQMVQYIYKYTSYPDPILLMKSARNSCWSKDAEYGLYSIYQGGIFELKENDRIFVSVTNEHLIDMDHEASFFGAFLVG | increased affinity for DR4
R149I: TRAIL DR4 variant, WO 2009/066174 (protein, UniProt P50591 1-281, looked up, variant R149I) Tumor necrosis factor ligand …: MAMMEVQGGPSLGQTCVLIVIFTVLLQSLCVAVTYVYFTNELKQMQDKYSKSGIACFLKEDDSYWDPNDEESMNSPCWQVKWQLRQLVRKMILRTSEETISTVQEKQQNISPLVRERGPQRVAAHITGTRGRSNTLSSPNSKNEKALGIKINSWESSRSGHSFLSNLHLRNGELVIHEKGFYYIYSQTYFRFQEEIKENTKNDKQMVQYIYKYTSYPDPILLMKSARNSCWSKDAEYGLYSIYQGGIFELKENDRIFVSVTNEHLIDMDHEASFFGAFLVG | increased affinity for DR4
Q193H: TRAIL DR4 variant, WO 2009/066174 (protein, UniProt P50591 1-281, looked up, variant Q193H) Tumor necrosis factor ligand …: MAMMEVQGGPSLGQTCVLIVIFTVLLQSLCVAVTYVYFTNELKQMQDKYSKSGIACFLKEDDSYWDPNDEESMNSPCWQVKWQLRQLVRKMILRTSEETISTVQEKQQNISPLVRERGPQRVAAHITGTRGRSNTLSSPNSKNEKALGRKINSWESSRSGHSFLSNLHLRNGELVIHEKGFYYIYSQTYFRFHEEIKENTKNDKQMVQYIYKYTSYPDPILLMKSARNSCWSKDAEYGLYSIYQGGIFELKENDRIFVSVTNEHLIDMDHEASFFGAFLVG | increased affinity for DR4
G131K: TRAIL DR4 variant, WO 2009/066174 (protein, UniProt P50591 1-281, looked up, variant G131K) Tumor necrosis factor ligand …: MAMMEVQGGPSLGQTCVLIVIFTVLLQSLCVAVTYVYFTNELKQMQDKYSKSGIACFLKEDDSYWDPNDEESMNSPCWQVKWQLRQLVRKMILRTSEETISTVQEKQQNISPLVRERGPQRVAAHITGTRKRSNTLSSPNSKNEKALGRKINSWESSRSGHSFLSNLHLRNGELVIHEKGFYYIYSQTYFRFQEEIKENTKNDKQMVQYIYKYTSYPDPILLMKSARNSCWSKDAEYGLYSIYQGGIFELKENDRIFVSVTNEHLIDMDHEASFFGAFLVG | increased affinity for DR4
K251Q: TRAIL DR4 variant, WO 2009/066174 (protein, UniProt P50591 1-281, looked up, variant K251Q) Tumor necrosis factor ligand …: MAMMEVQGGPSLGQTCVLIVIFTVLLQSLCVAVTYVYFTNELKQMQDKYSKSGIACFLKEDDSYWDPNDEESMNSPCWQVKWQLRQLVRKMILRTSEETISTVQEKQQNISPLVRERGPQRVAAHITGTRGRSNTLSSPNSKNEKALGRKINSWESSRSGHSFLSNLHLRNGELVIHEKGFYYIYSQTYFRFQEEIKENTKNDKQMVQYIYKYTSYPDPILLMKSARNSCWSKDAEYGLYSIYQGGIFELQENDRIFVSVTNEHLIDMDHEASFFGAFLVG | increased affinity for DR4
S215K: TRAIL DR4 variant, WO 2009/066174 (protein, UniProt P50591 1-281, looked up, variant S215K) Tumor necrosis factor ligand …: MAMMEVQGGPSLGQTCVLIVIFTVLLQSLCVAVTYVYFTNELKQMQDKYSKSGIACFLKEDDSYWDPNDEESMNSPCWQVKWQLRQLVRKMILRTSEETISTVQEKQQNISPLVRERGPQRVAAHITGTRGRSNTLSSPNSKNEKALGRKINSWESSRSGHSFLSNLHLRNGELVIHEKGFYYIYSQTYFRFQEEIKENTKNDKQMVQYIYKYTKYPDPILLMKSARNSCWSKDAEYGLYSIYQGGIFELKENDRIFVSVTNEHLIDMDHEASFFGAFLVG | increased affinity for DR4
K251E: TRAIL DR4 variant, WO 2009/066174 (protein, UniProt P50591 1-281, looked up, variant K251E) Tumor necrosis factor ligand …: MAMMEVQGGPSLGQTCVLIVIFTVLLQSLCVAVTYVYFTNELKQMQDKYSKSGIACFLKEDDSYWDPNDEESMNSPCWQVKWQLRQLVRKMILRTSEETISTVQEKQQNISPLVRERGPQRVAAHITGTRGRSNTLSSPNSKNEKALGRKINSWESSRSGHSFLSNLHLRNGELVIHEKGFYYIYSQTYFRFQEEIKENTKNDKQMVQYIYKYTSYPDPILLMKSARNSCWSKDAEYGLYSIYQGGIFELEENDRIFVSVTNEHLIDMDHEASFFGAFLVG | increased affinity for DR4
S159R: TRAIL DR4 variant, WO 2009/066174 (protein, UniProt P50591 1-281, looked up, variant S159R) Tumor necrosis factor ligand …: MAMMEVQGGPSLGQTCVLIVIFTVLLQSLCVAVTYVYFTNELKQMQDKYSKSGIACFLKEDDSYWDPNDEESMNSPCWQVKWQLRQLVRKMILRTSEETISTVQEKQQNISPLVRERGPQRVAAHITGTRGRSNTLSSPNSKNEKALGRKINSWESSRRGHSFLSNLHLRNGELVIHEKGFYYIYSQTYFRFQEEIKENTKNDKQMVQYIYKYTSYPDPILLMKSARNSCWSKDAEYGLYSIYQGGIFELKENDRIFVSVTNEHLIDMDHEASFFGAFLVG | increased affinity for DR4
R149K: TRAIL DR4 variant, WO 2009/066174 (protein, UniProt P50591 1-281, looked up, variant R149K) Tumor necrosis factor ligand …: MAMMEVQGGPSLGQTCVLIVIFTVLLQSLCVAVTYVYFTNELKQMQDKYSKSGIACFLKEDDSYWDPNDEESMNSPCWQVKWQLRQLVRKMILRTSEETISTVQEKQQNISPLVRERGPQRVAAHITGTRGRSNTLSSPNSKNEKALGKKINSWESSRSGHSFLSNLHLRNGELVIHEKGFYYIYSQTYFRFQEEIKENTKNDKQMVQYIYKYTSYPDPILLMKSARNSCWSKDAEYGLYSIYQGGIFELKENDRIFVSVTNEHLIDMDHEASFFGAFLVG | increased affinity for DR4
R149M: TRAIL DR4 variant, WO 2009/066174 (protein, UniProt P50591 1-281, looked up, variant R149M) Tumor necrosis factor ligand …: MAMMEVQGGPSLGQTCVLIVIFTVLLQSLCVAVTYVYFTNELKQMQDKYSKSGIACFLKEDDSYWDPNDEESMNSPCWQVKWQLRQLVRKMILRTSEETISTVQEKQQNISPLVRERGPQRVAAHITGTRGRSNTLSSPNSKNEKALGMKINSWESSRSGHSFLSNLHLRNGELVIHEKGFYYIYSQTYFRFQEEIKENTKNDKQMVQYIYKYTSYPDPILLMKSARNSCWSKDAEYGLYSIYQGGIFELKENDRIFVSVTNEHLIDMDHEASFFGAFLVG | increased affinity for DR4
S215D: TRAIL DR4 variant, WO 2009/066174 (protein, UniProt P50591 1-281, looked up, variant S215D) Tumor necrosis factor ligand …: MAMMEVQGGPSLGQTCVLIVIFTVLLQSLCVAVTYVYFTNELKQMQDKYSKSGIACFLKEDDSYWDPNDEESMNSPCWQVKWQLRQLVRKMILRTSEETISTVQEKQQNISPLVRERGPQRVAAHITGTRGRSNTLSSPNSKNEKALGRKINSWESSRSGHSFLSNLHLRNGELVIHEKGFYYIYSQTYFRFQEEIKENTKNDKQMVQYIYKYTDYPDPILLMKSARNSCWSKDAEYGLYSIYQGGIFELKENDRIFVSVTNEHLIDMDHEASFFGAFLVG | increased affinity for DR4
S215H: TRAIL DR4 variant, WO 2009/066174 (protein, UniProt P50591 1-281, looked up, variant S215H) Tumor necrosis factor ligand …: MAMMEVQGGPSLGQTCVLIVIFTVLLQSLCVAVTYVYFTNELKQMQDKYSKSGIACFLKEDDSYWDPNDEESMNSPCWQVKWQLRQLVRKMILRTSEETISTVQEKQQNISPLVRERGPQRVAAHITGTRGRSNTLSSPNSKNEKALGRKINSWESSRSGHSFLSNLHLRNGELVIHEKGFYYIYSQTYFRFQEEIKENTKNDKQMVQYIYKYTHYPDPILLMKSARNSCWSKDAEYGLYSIYQGGIFELKENDRIFVSVTNEHLIDMDHEASFFGAFLVG | increased affinity for DR4
K251D: TRAIL DR4 variant, WO 2009/066174 (protein, UniProt P50591 1-281, looked up, variant K251D) Tumor necrosis factor ligand …: MAMMEVQGGPSLGQTCVLIVIFTVLLQSLCVAVTYVYFTNELKQMQDKYSKSGIACFLKEDDSYWDPNDEESMNSPCWQVKWQLRQLVRKMILRTSEETISTVQEKQQNISPLVRERGPQRVAAHITGTRGRSNTLSSPNSKNEKALGRKINSWESSRSGHSFLSNLHLRNGELVIHEKGFYYIYSQTYFRFQEEIKENTKNDKQMVQYIYKYTSYPDPILLMKSARNSCWSKDAEYGLYSIYQGGIFELDENDRIFVSVTNEHLIDMDHEASFFGAFLVG | increased affinity for DR4
D218H: TRAIL DR4 variant, WO 2009/066174 (protein, UniProt P50591 1-281, looked up, variant D218H) Tumor necrosis factor ligand …: MAMMEVQGGPSLGQTCVLIVIFTVLLQSLCVAVTYVYFTNELKQMQDKYSKSGIACFLKEDDSYWDPNDEESMNSPCWQVKWQLRQLVRKMILRTSEETISTVQEKQQNISPLVRERGPQRVAAHITGTRGRSNTLSSPNSKNEKALGRKINSWESSRSGHSFLSNLHLRNGELVIHEKGFYYIYSQTYFRFQEEIKENTKNDKQMVQYIYKYTSYPHPILLMKSARNSCWSKDAEYGLYSIYQGGIFELKENDRIFVSVTNEHLIDMDHEASFFGAFLVG | increased affinity for DR4
